Data as given in patent US20180188270A1, “DIAGNOSTIC TEST FOR ALZHEIMER'S DISEASE BASED ON IDENTIFICATION OF A PROTEOLYTIC PATHWAY” (Health Research, Inc., priority 2015, published 2018).

What was measured:
FVIIa = target: T1, FVIIa (Homo sapiens, UniProt P08709); assay: In vitro degradation by FVIIa with or without TF; assay type: biochemical; settings: for hPEPD remaining (enzymatic activity): 60 min
T1 construct: purchased Haematologic Technologies HCVIIA-0031 (FVIIa); RTF-0300 (TF)
Experimental: To determine whether a blood coagulation factor degrades hPEPD, hPEPD at 90 nM or lower concentrations (10 or 40 nM) was incubated with solvent, 100 nM FIIa, 100 nM FXa, 10 nM FVIIa with or without 10 nM TF, or 10 nM FVII with or without 10 nM TF and/or 100 nM FIIa in PBS in a total volume of 100 μl containing 5 mM CaCl2 for desired times at RT. […] To compare the hPEPD-degrading activities of different plasma samples, 9.2 pmol of hPEPD was incubated with 100 μl of plasma from WT mice or FVII^tTA/tTA mice at RT, with or without FIIa or FXa (10 pmol), and to maximize detection of any activity, all incubations lasted for 24 h. […] To measure remaining hPEPD, the incubated samples were cleared of potential fibrin clots by centrifugation and then analyzed by SDS-PAGE and silver staining (using the LC 6070 kit from Invitrogen), IB or measurement of hPEPD enzymatic activity. hPEPD enzymatic activity was measured using glycyl-proline as a substrate (as described in Zbucka et al., Folia Histochem Cytobiol 2007; 45 Suppl 1: S181-185). The precipitates from each incubated sample were washed with PBS twice and then resuspended in 2.5% SDS (20 μper sample); each solution was mixed with 10 μl loading dye and analyzed for hPEPD by IB, using pure hPEPD as a standard and factor FXIIIa as a binding control, respectively.
All samples after incubation were resolved by SDS-PAGE and stained by silver.
Each value is mean±SD (n=3).

FX, FII or FVII = assay: Potential activation of FX, FII or FVII by hPEPD (IB); assay type: biochemical, human; settings: hPEPD 40 nM, 5 mM CaCl2, RT, 24 h
Experimental: Measurement of Potential Activation of FX, FII or FVII by hPEPD. hPEPD (40 nM) was incubated with FX, FIT or FVII […] in PBS at RT in the presence of 5 mM CaCl2 for 24 h, followed by IB analysis for potential activation/cleavage of each coagulation factor. FXa, FIIa and FVIIa were used as positive controls in the experiments.

T1 sequence (P08709 61-212 limits assumed): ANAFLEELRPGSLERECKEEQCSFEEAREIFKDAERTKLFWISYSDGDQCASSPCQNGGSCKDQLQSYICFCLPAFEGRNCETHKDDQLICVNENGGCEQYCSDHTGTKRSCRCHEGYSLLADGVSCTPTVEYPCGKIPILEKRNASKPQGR
T1 sequence (P08709 213-466 limits assumed): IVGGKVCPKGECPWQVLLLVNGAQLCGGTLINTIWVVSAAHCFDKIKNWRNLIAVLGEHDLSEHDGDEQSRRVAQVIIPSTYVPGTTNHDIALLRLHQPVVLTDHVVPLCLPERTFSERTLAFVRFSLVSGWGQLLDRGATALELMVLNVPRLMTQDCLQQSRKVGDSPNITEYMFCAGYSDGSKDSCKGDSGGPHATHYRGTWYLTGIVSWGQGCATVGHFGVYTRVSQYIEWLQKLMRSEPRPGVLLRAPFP
T1 sequence (P13726 33-295 partner): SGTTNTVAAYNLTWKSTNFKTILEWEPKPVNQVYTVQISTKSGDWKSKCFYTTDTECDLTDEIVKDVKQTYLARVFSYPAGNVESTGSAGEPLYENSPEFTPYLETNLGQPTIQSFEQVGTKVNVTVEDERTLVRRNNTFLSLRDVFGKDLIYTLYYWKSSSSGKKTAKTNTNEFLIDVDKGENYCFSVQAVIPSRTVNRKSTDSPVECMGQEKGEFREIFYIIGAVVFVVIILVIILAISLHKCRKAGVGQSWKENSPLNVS

B1: hPEPD: recombinant human prolidase (PEPD), 6xHis tagged to the carboxy terminus (protein, UniProt P12955 2-493, looked up)
Xaa-Pro dipeptidase: AAATGPSFWLGNETLKVPLALFALNRQRLCERLRKNPAVQAGSIVVLQGGEETQRYCTDTGVLFRQESFFHWAFGVTEPGCYGVIDVDTGKSTLFVPRLPASHATWMGKIHSKEHFKEKYAVDDVQYVDEIASVLTSQKPSVLLTLRGVNTDSGSVCREASFDGISKFEVNNTILHPEIVECRVFKTDMELEVLRYTNKISSEAHREVMKAVKVGMKEYELESLFEHYCYSRGGMRHSSYTCICGSGENSAVLHYGHAGAPNDRTIQNGDMCLFDMGGEYYCFASDITCSFPANGKFTADQKAVYEAVLRSSRAVMGAMKPGVWWPDMHRLADRIHLEELAHMGILSGSVDAMVQAHLGAVFMPHGLGHFLGIDVHDVGGYPEGVERIDEPGLRSLRTARHLQPGMVLTVEPGIYFIDHLLDEALADPARASFLNREVLQRFRGFGGVRIEEDVVVTDSGIELLTCVPRTVEEIEACMAGCDKAFTPFSGPK
modifications: C-terminal 6xHis tag
notes: recombinant human prolidase (PEPD), 6xHis tagged to the carboxy terminus
Question: What does the source list for B1?
Answer: proteolysis/fragmentation by FVIIa plus TF (FVIIa; FVIIa 10 nM plus TF 10 nM, CaCl2-containing PBS, RT): caused rapid and extensive hPEPD proteolysis; degradation by FVIIa in the absence of TF (FVIIa; FVIIa 10 nM, no TF): degraded hPEPD; hPEPD remaining (enzymatic activity) (FVIIa; hPEPD 10 nM, FVIIa 10 nM plus TF 10 nM, RT): 35.9%; hPEPD remaining (enzymatic activity) (FVIIa; hPEPD 40 nM, FVIIa 10 nM plus TF 10 nM, RT): 46.3%; hPEPD remaining (enzymatic activity) (FVIIa; hPEPD 90 nM, FVIIa 10 nM plus TF 10 nM, RT): 52.4%; direct activation of FX, FII or FVII (FX, FII or FVII): does not directly activate any of these factors
